Experimental data as given in the Human Domainome abundance scans (Beltran et al. 2025).
± gives the uncertainty stated by the source.

B1: Histone H1t, residues 44 to 112; numbered along this chain, P22492 (parent)
chain: VSKLITEALSVSQERVGMSLVALKKALAAAGYDVEKNNSRIKLSLKSLVNKGILVQTRGTGASGSFKLS

Variants of: B1
Experiment: abundance fitness (aPCA) (normalised: wild type 0, dead -1); higher = more abundant; growth selection in yeast, the domain comes from the species named
Settings: Homo sapiens

| Variant | abundance fitness |
| --- | --- |
| VSKLITEALSVSQERVGMSLVALKKALAAAGYDCEKNNSRIKLSLKSLVNKGILVQTRGTGASGSFKLS [V34C] | -0.179 ± 0.059 |
| VSKLITEALSVSQERVGMSLVALKKALAAAGYDDEKNNSRIKLSLKSLVNKGILVQTRGTGASGSFKLS [V34D] | -0.327 ± 0.11 |
| VSKLITEALSVSQERVGMSLVALKKALAAAGYDEEKNNSRIKLSLKSLVNKGILVQTRGTGASGSFKLS [V34E] | -0.346 ± 0.049 |
| VSKLITEALSVSQERVGMSLVALKKALAAAGYDGEKNNSRIKLSLKSLVNKGILVQTRGTGASGSFKLS [V34G] | -0.306 ± 0.041 |
| VSKLITEALSVSQERVGMSLVALKKALAAAGYDHEKNNSRIKLSLKSLVNKGILVQTRGTGASGSFKLS [V34H] | -0.4 ± 0.092 |
| VSKLITEALSVSQERVGMSLVALKKALAAAGYDIEKNNSRIKLSLKSLVNKGILVQTRGTGASGSFKLS [V34I] | -0.123 ± 0.093 |
| VSKLITEALSVSQERVGMSLVALKKALAAAGYDKEKNNSRIKLSLKSLVNKGILVQTRGTGASGSFKLS [V34K] | -0.104 ± 0.078 |
| VSKLITEALSVSQERVGMSLVALKKALAAAGYDLEKNNSRIKLSLKSLVNKGILVQTRGTGASGSFKLS [V34L] | -0.214 ± 0.03 |
| VSKLITEALSVSQERVGMSLVALKKALAAAGYDMEKNNSRIKLSLKSLVNKGILVQTRGTGASGSFKLS [V34M] | -0.098 ± 0.053 |
| VSKLITEALSVSQERVGMSLVALKKALAAAGYDPEKNNSRIKLSLKSLVNKGILVQTRGTGASGSFKLS [V34P] | -0.212 ± 0.037 |
| VSKLITEALSVSQERVGMSLVALKKALAAAGYDQEKNNSRIKLSLKSLVNKGILVQTRGTGASGSFKLS [V34Q] | -0.309 ± 0.051 |
| VSKLITEALSVSQERVGMSLVALKKALAAAGYDREKNNSRIKLSLKSLVNKGILVQTRGTGASGSFKLS [V34R] | -0.268 ± 0.036 |
| VSKLITEALSVSQERVGMSLVALKKALAAAGYDSEKNNSRIKLSLKSLVNKGILVQTRGTGASGSFKLS [V34S] | -0.199 ± 0.035 |
| VSKLITEALSVSQERVGMSLVALKKALAAAGYDTEKNNSRIKLSLKSLVNKGILVQTRGTGASGSFKLS [V34T] | -0.068 ± 0.047 |
| VSKLITEALSVSQERVGMSLVALKKALAAAGYDWEKNNSRIKLSLKSLVNKGILVQTRGTGASGSFKLS [V34W] | -0.252 ± 0.042 |
| VSKLITEALSVSQERVGMSLVALKKALAAAGYDYEKNNSRIKLSLKSLVNKGILVQTRGTGASGSFKLS [V34Y] | -0.472 ± 0.12 |
| VSKLITEALSVSQERVGMSLVALKKALAAAGYDVFKNNSRIKLSLKSLVNKGILVQTRGTGASGSFKLS [E35F] | -0.307 ± 0.047 |
| VSKLITEALSVSQERVGMSLVALKKALAAAGYDVHKNNSRIKLSLKSLVNKGILVQTRGTGASGSFKLS [E35H] | -0.137 ± 0.06 |
| VSKLITEALSVSQERVGMSLVALKKALAAAGYDVIKNNSRIKLSLKSLVNKGILVQTRGTGASGSFKLS [E35I] | -0.123 ± 0.059 |
| VSKLITEALSVSQERVGMSLVALKKALAAAGYDVKKNNSRIKLSLKSLVNKGILVQTRGTGASGSFKLS [E35K] | 0.05 ± 0.053 |

| Variant | abundance fitness |
| --- | --- |
| VSKLITEALSVSQERVGMSLVALKKALAAAGYDVMKNNSRIKLSLKSLVNKGILVQTRGTGASGSFKLS [E35M] | -0.157 ± 0.038 |
| VSKLITEALSVSQERVGMSLVALKKALAAAGYDVNKNNSRIKLSLKSLVNKGILVQTRGTGASGSFKLS [E35N] | -0.064 ± 0.092 |
| VSKLITEALSVSQERVGMSLVALKKALAAAGYDVPKNNSRIKLSLKSLVNKGILVQTRGTGASGSFKLS [E35P] | -0.31 ± 0.034 |
| VSKLITEALSVSQERVGMSLVALKKALAAAGYDVQKNNSRIKLSLKSLVNKGILVQTRGTGASGSFKLS [E35Q] | -0.084 ± 0.04 |
| VSKLITEALSVSQERVGMSLVALKKALAAAGYDVSKNNSRIKLSLKSLVNKGILVQTRGTGASGSFKLS [E35S] | -0.134 ± 0.032 |
| VSKLITEALSVSQERVGMSLVALKKALAAAGYDVTKNNSRIKLSLKSLVNKGILVQTRGTGASGSFKLS [E35T] | -0.061 ± 0.038 |
| VSKLITEALSVSQERVGMSLVALKKALAAAGYDVYKNNSRIKLSLKSLVNKGILVQTRGTGASGSFKLS [E35Y] | -0.036 ± 0.065 |
| VSKLITEALSVSQERVGMSLVALKKALAAAGYDVEANNSRIKLSLKSLVNKGILVQTRGTGASGSFKLS [K36A] | -0.106 ± 0.047 |
| VSKLITEALSVSQERVGMSLVALKKALAAAGYDVECNNSRIKLSLKSLVNKGILVQTRGTGASGSFKLS [K36C] | -0.556 ± 0.07 |
| VSKLITEALSVSQERVGMSLVALKKALAAAGYDVEDNNSRIKLSLKSLVNKGILVQTRGTGASGSFKLS [K36D] | -0.387 ± 0.15 |
| VSKLITEALSVSQERVGMSLVALKKALAAAGYDVEENNSRIKLSLKSLVNKGILVQTRGTGASGSFKLS [K36E] | -0.428 ± 0.069 |
| VSKLITEALSVSQERVGMSLVALKKALAAAGYDVEGNNSRIKLSLKSLVNKGILVQTRGTGASGSFKLS [K36G] | -0.251 ± 0.047 |
| VSKLITEALSVSQERVGMSLVALKKALAAAGYDVEHNNSRIKLSLKSLVNKGILVQTRGTGASGSFKLS [K36H] | -0.432 ± 0.073 |
| VSKLITEALSVSQERVGMSLVALKKALAAAGYDVEINNSRIKLSLKSLVNKGILVQTRGTGASGSFKLS [K36I] | -0.628 ± 0.13 |
| VSKLITEALSVSQERVGMSLVALKKALAAAGYDVELNNSRIKLSLKSLVNKGILVQTRGTGASGSFKLS [K36L] | -0.358 ± 0.04 |
| VSKLITEALSVSQERVGMSLVALKKALAAAGYDVEMNNSRIKLSLKSLVNKGILVQTRGTGASGSFKLS [K36M] | -0.285 ± 0.064 |
| VSKLITEALSVSQERVGMSLVALKKALAAAGYDVENNNSRIKLSLKSLVNKGILVQTRGTGASGSFKLS [K36N] | -0.019 ± 0.11 |
| VSKLITEALSVSQERVGMSLVALKKALAAAGYDVEPNNSRIKLSLKSLVNKGILVQTRGTGASGSFKLS [K36P] | -0.62 ± 0.046 |
| VSKLITEALSVSQERVGMSLVALKKALAAAGYDVEQNNSRIKLSLKSLVNKGILVQTRGTGASGSFKLS [K36Q] | -0.152 ± 0.044 |
